Measurements published in patent publication US20050019808A1 (WISCONSIN ALUMNI RESEARCH FOUNDATION, published 2005).

Legend:
B23 (nucleophosmin) = molecular target: T1, B23 (nucleophosmin) (UniProt P06748 1-294); assay: mobility shift, 4% native PAGE, Western with Ab-B23; not sensitive to RNaseA
T1 construct: Endogenous protein of HeLa cells; also called protein B23; ribosomal chaperone protein B23

[1] = molecular target: the molecule itself; assay: SDS-PAGE and Western, self-association (dimer)
[2] = molecular target: the molecule itself; assay: SDS-PAGE and Western, self-association (results not shown)

T1 sequence (P06748 whole entry): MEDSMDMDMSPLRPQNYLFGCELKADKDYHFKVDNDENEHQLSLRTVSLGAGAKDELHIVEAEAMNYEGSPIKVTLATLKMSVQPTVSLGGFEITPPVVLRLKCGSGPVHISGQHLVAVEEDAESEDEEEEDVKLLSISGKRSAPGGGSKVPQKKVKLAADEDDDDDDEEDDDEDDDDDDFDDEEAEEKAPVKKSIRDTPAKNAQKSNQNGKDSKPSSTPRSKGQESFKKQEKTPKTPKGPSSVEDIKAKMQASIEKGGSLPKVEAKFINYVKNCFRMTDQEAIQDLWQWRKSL

Binder | binding result (B23 (nucleophosmin)) | binding result [1] | binding result [2]
recombinant Mengo 2A protein (other, domain: 2A; also called r2A; recombinant 2A) SPNPLDVSKTYPTLHILLQFNHRGLEARIFRHGQLWAETHAEVVLRSKTKQISFLSNGSYPSMDATTPLNPWKSTYQAVLRAEPHRVTMDVYHKRIRPFRLPLVQKEWRTCEENVFGLYHVFETHYAGYFSDLLIHDVETNPG | binds | binds | –
recombinant Mengo 2B protein (other, domain: 2B; also called recombinant 2B protein) PFTFKPRQRPVFQTQGAAVSSMAQTLLPNDLASKAMGSAFTALLDANEDAQKAMKIIKTLSSLSDAWENVKGTLNNPEFWKQLLSRCVQLIAGMTIAVMHPDPLTLLCLGVLTAAEITSQTSLCEEIAAKFKTIFTTPPPRFPVISLFQQQ | – | – | binds
